Data: patent US20160184454A1, “RAB7L1 INTERACTS WITH LRRK2 TO MODIFY INTRANEURONAL PROTEIN SORTING AND PARKINSON'S DISEASE RISK” (THE TRUSTEES OF COLUMBIA UNIVERSITY IN THE CITY OF NEW YORK, priority 2013, published 2016)

Columns and labels:
[1] = tested on: rat primary cortical neurons; test: Neurite length assay in transfected primary cortical neuron cultures; type: cell-based
Excerpt: As 5 candidate genes are present within the PARK16 locus (SLC45A3, NUCKS, RAB7L1, SLC41A1, and PM20D1), each of the genes were experimentally screened for a functional interaction with LRRK2 (FIG. 2A). A previously-described primary rat neuron in vitro culture model was used, in which transient expression of familial PD-associated LRRK2 G2019S or R1441C mutant alleles leads to a marked reduction in neurite process length (MacLeod et al., 2006). […] RAB7L1 is a small cytosolic GTPase, structurally distinct from RAB7 despite its name (also known as RAB29) (Shimizu et al., 1997). […] But the function of RAB7L1 in CNS neurons remains unknown. Orthologues of RAB7L1 in other organisms, including C. elegans Glo-1 and Drosophila melanogaster Lighloid, have been implicated in trafficking to lysosome-related organelles (Hermann et al., 2005) and in the regulation of neurite process length (Grill et al., 2007), reminiscent of LRRK2 mutant phenotypes (MacLeod et al., 2006). Thus this gene was of particular interest.
Sprague-Dawley rat or mouse PI primary dissociated cortical cultures were prepared and transfected essentially as described (Xia et al., 1996) with the following modifications: cells were plated at high density, approximately 250,000 cells/cm2, in 24-well plates with 500 ul medium/well. Culture medium used for plating cells was Neurobasal-A supplemented with 2% B-27 and 10% FBS. At 1 day after plating, medium was changed to reduced serum (1% FBS+added antimitotic agents: 70 μM uridine and 25 μM 5-fluorodeoxyuridine) and replaced weekly thereafter; for transfections no DMSO was added to the transfection mixture, cells were not subjected to glycerol shock, and a total of 3 μg plasmid DNA was used per well. Cells were fixed in 4% PFA and immunostained with mouse α-RAB7L1 (Santa Cruz, 1:100), and rabbit monoclonal α-LRRK2 (Michal J. Fox Foundation MJFF4, 1:100), then with appropriate fluorescent secondaries (Jackson, 1:1000-2000). Neurite length and neurite puncta (defined as swellings greater than 2 um in diameter) were counted for at least 20 neurons per condition. Mean puncta number per neuron was normalized to total average neurite length versus wild-type LRRK2 transfected cells. Fluorescent microscopy was performed using a Nikon TE 2000-S microscope and a Zeiss LSM510 Meta confocal microscope. Images were analyzed using Image-Pro Plus (Mediacybernetics) software version 5.1.0.20.

[2] = molecular target: T1, human wild-type LRRK2 (BAC transgene, mouse brain) (human, UniProt Q5S007 1-2527); test: immunoprecipitation of LRRK2 with a rabbit monoclonal antibody from transgenic mouse brain lysates, Western blot for RAB7L1
T1 construct: Untagged human LRRK2 expressed from a BAC construct in transgenic mice; It was immunoprecipitated from whole brain lysate with an anti-LRRK2 antibody; The lysate also holds endogenous mouse LRRK2; also called LRRK2 wild type transgenic (WT); LRRK2-WT
T1 sequence (Q5S007 whole entry R50H): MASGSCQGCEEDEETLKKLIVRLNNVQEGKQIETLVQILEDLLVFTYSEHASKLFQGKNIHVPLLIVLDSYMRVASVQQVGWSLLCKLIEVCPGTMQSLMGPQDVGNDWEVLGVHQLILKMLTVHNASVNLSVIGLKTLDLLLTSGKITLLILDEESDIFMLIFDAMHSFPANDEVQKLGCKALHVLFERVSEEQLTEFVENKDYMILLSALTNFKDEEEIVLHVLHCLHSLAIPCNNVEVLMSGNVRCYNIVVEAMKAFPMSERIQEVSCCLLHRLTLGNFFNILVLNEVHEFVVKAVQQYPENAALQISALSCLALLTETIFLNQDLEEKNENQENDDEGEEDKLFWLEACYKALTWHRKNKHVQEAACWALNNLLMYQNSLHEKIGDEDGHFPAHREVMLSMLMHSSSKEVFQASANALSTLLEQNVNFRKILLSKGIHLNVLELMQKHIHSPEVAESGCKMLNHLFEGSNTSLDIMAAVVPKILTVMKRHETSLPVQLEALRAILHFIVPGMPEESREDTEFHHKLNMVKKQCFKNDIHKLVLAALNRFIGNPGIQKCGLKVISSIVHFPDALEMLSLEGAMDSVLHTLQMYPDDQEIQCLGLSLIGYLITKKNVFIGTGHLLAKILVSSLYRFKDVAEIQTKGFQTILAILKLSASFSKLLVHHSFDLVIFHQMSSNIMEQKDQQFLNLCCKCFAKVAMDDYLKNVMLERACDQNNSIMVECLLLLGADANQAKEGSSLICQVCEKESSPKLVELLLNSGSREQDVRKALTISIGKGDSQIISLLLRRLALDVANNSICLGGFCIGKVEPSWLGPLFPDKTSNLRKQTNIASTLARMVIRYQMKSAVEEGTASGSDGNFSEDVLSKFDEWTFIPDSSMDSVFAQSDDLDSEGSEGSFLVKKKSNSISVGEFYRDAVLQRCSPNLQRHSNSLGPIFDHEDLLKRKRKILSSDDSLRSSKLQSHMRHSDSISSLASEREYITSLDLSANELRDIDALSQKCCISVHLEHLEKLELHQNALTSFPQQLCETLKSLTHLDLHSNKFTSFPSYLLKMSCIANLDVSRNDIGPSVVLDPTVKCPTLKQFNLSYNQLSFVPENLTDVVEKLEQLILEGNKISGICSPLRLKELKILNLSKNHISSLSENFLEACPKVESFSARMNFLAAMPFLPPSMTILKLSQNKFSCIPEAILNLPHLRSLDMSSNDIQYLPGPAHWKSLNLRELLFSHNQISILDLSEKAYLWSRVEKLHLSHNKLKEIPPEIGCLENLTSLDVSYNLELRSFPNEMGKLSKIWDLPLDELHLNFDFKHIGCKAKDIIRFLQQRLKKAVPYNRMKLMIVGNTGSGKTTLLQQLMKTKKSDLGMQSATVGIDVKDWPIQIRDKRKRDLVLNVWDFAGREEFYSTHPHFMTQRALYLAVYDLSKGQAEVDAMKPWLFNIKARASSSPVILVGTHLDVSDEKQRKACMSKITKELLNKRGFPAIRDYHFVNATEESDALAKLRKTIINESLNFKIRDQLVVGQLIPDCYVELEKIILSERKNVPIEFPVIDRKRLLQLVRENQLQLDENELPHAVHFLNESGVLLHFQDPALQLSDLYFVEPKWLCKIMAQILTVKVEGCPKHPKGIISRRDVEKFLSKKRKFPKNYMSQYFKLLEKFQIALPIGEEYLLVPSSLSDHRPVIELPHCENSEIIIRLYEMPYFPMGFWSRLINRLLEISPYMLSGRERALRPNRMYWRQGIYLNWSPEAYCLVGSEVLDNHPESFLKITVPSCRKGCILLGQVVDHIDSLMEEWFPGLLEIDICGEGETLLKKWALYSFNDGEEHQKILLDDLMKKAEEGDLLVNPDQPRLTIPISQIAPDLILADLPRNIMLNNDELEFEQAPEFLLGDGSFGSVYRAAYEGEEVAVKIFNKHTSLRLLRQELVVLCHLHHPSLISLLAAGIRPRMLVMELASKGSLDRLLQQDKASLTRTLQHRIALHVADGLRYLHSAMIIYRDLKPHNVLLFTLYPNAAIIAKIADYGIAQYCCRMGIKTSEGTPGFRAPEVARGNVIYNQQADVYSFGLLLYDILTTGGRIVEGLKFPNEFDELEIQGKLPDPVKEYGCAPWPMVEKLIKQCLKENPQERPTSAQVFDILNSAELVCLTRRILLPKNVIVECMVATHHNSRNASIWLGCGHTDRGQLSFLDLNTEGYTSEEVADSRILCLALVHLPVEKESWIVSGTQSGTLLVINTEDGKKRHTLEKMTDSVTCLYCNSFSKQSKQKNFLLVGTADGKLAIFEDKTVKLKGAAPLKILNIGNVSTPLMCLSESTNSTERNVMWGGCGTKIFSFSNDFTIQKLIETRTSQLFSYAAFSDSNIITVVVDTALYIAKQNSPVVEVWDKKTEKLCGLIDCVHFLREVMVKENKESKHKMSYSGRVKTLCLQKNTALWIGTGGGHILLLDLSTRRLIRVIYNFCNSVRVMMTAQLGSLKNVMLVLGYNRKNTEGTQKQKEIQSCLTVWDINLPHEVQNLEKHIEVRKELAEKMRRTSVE

[3] = tested on: primary rat cortical neurons; test: MPR sorting / colocalization analysis (Golph4, LAMP2, EEA1) in primary neurons; type: cell-based; settings: in the context of LRRK2 G2019S expression
Excerpt: A cellular role for the LRRK2-RAB7L1 pathway was investigated. Prior studies have broadly implicated both of these gene products in intracellular sorting (Sakaguchi-Nakashima et al., 2007; Spano et al., 2011). Expression of the LRRK2 G2019S clinical mutation in rat primary neurons induced lysosomal swelling, as quantified by immunostaining for the lyosomal marker LAMP2 or using the lysosomotropic dye Lysotracker, consistent with prior work and other studies (Dodson et al., 2012; MacLeod et al., 2006; Stafa et al., 2012) (FIG. 6A). In addition to lysosomal enlargement, there was significant reduction in lysosomal accumulation of the cation-independent mannose 6-phosphate receptor (MPR) in terms of the fraction of LAMP2-positive structures stained with MPR. As MPR is required also for the recruitment of lysosomal hydrolases, its deficiency is predicted to lead to functional lysosomal deficits.
MPR is typically recycled between the endolysosome compartment and the Golgi apparatus by the retromer complex (Arighi et al., 2004; Bonifacino and Hurley, 2008; Seaman, 2009; St. George-Hyslop et al., 2009). […]
Primary rat cortical neurons were cultured on glass coverslips, transfected, and fixed as previously described in this methods section. […] Images were analysed using NIH ImageJ software version 1.45.

LRRK2 = molecular target: T2, LRRK2 (Homo sapiens, UniProt Q5S007); test: Co-immunoprecipitation of LRRK2 and RAB7L1 from transfected HEK293T cells; type: binding; settings: HEK293T lysates, 3×Flag-LRRK2 and GFP-RAB7L1, 48 hrs
T2 construct: Plasmids encoding full-length human LRRK2 (wild-type, G2019S, K1906M) tagged with 3×FLAG at the N-terminus were used; expressed in transfected cells; host or cells: HEK293T
Procedure: Next more direct evidence of a physical interaction between LRRK2 and RAB7L1 was sought and thus co-immunoprecipitation studies were performed. Epitope-tagged forms of LRRK2 and RAB7L1 (3×Flag-LRRK2 and GFP-RAB7L1) were co-transfected into HEK293T cells, and after 48 hrs, cell lysates were immunoprecipitated with an anti-Flag antibody and then probed for RAB7L1. […] Similarly, immunoprecipitation of RAB7L1 with an antibody to the GFP tag co-precipitated LRRK2 only in the presence of RAB7L1-GFP (FIG. 3B). To probe for an interaction between LRRK2 and RAB7L1 in a more physiological context, RAB7L1 protein was examined in brain lysates from transgenic mice that harbor human wild-type LRRK2 or a familial PD mutant form of LRRK2, R1441C, within a large bacterial artificial chromosome (BAC) construct. Transgenic LRRK2 is broadly expressed throughout the CNS of these mice, although at relatively low levels (FIG. 10A). Brain tissue lysates were immunoprecipitated for LRRK2 protein with a rabbit monoclonal antibody.
For cultured cells, HEK293T cells transfected for 48 hours were lysed with lysis buffer containing 0.5% Triton-X. 1 mM EDTA and protease inhibitor cocktail (Sigma). The lysates were rotated at 4° C. for 1 hr followed by centrifugation at 20,000 g for 5 min. […]

B1: RAB7L1 protein in mouse brain lysate (endogenous) (enzyme, UniProt Q91YQ1 1-204, looked up)
chain: MGSRDHLFKVLVVGDAAVGKTSLVQRYSQDSFSKHYKSTVGVDFALKVLQWSDSEMVRLQLWDIAGQERFTSMTRLYYRDASACVIMFDVTNATTFSNSQRWKQDLDSKLTLPSGEPVPCLLLANKSDLSPWAVSRDQIDRFSKENGFTGWTETSVKENKNINEAMRVLVEKMMNNSREDVMSLSTQGNYINLQAKPSSGWTCC
notes: Detected by Western blot (Santa Cruz sc-81924) after LRRK2 immunoprecipitation
- LRRK2 mutation-induced neurite length phenotype ([1]; co-transfection with LRRK2 G2019S (0.5 μg/well), test vector 1 μg/well): significantly suppressed the LRRK2 mutation-induced neurite length phenotype
- reduced neurite length ([1]; in the context of VPS35 knockdown by shRNA): not rescued
- neurite length ([1]; in the context of overexpression of wild-type LRRK2): did not modify neurite length
- binding result [2]: binds
- lysosomal phenotypes (swollen lysosomes, reduced lysosomal MPR) [3]: suppressed the lysosomal phenotypes
- co-immunoprecipitation with LRRK2 (LRRK2): effectively co-precipitated
